The values that follow come from publication doi:10.1101/836718.

Assay [1] has as its target recombinant His-tagged HIV-1 integrase P26 (A128T/H171Q/K173Q/N254K) (IN^P26) (HIV-1 (NL4-3)). As to the kind of experiment: SEC.
Assay [2] has the same target. Kind of assay: cross-linking.
Assay [3] has as its target recombinant His-tagged HIV-1 integrase P20 (A128T/K173Q/N254K) (IN^P20) (HIV-1 (NL4-3)). Kind of assay: SEC.
Assay [4] deals with recombinant His-tagged HIV-1 integrase R269A/K273A (IN^RAKA) (HIV-1 (NL4-3)). Kind of assay: cross-linking.
In assay [5] the target is recombinant His-tagged HIV-1 integrase P15 (A128T/K173Q) (IN^P15) (HIV-1 (NL4-3)). As to the kind of experiment: SEC.

As usually defined, the stoichiometry N is the number of molecules, sites or subunits per partner or assembly. For the substance “recombinant His-tagged HIV-1 integrase P26 (A128T/H171Q/K173Q/N254K) (IN^P26) (enzyme)”, the stoichiometry N in assay [1] came to 2. Moreover, in assay [2], the multimer ratio, dimers turned out to be 19.6%; the multimer ratio, tetramers came to 3.3%; the stoichiometry N was determined as 4. Take “recombinant His-tagged HIV-1 integrase P20 (A128T/K173Q/N254K) (IN^P20) (enzyme)”: the stoichiometry N in assay [3] was determined as 2. For “recombinant His-tagged HIV-1 integrase R269A/K273A (IN^RAKA) (enzyme)”, the stoichiometry N in assay [4] is 4. In the case of “recombinant His-tagged HIV-1 integrase P15 (A128T/K173Q) (IN^P15) (enzyme)”, the stoichiometry N in assay [5] was found to be 2.
